Data from patent US20230250154A1 (CYTONICS, published 2023).
Positions count from the first letter of the chain named. Names and notes keep the numbering of the source.

T1: MMP1 (human, UniProt P03956 100-469, limits assumed)
T1 sequence (looked up): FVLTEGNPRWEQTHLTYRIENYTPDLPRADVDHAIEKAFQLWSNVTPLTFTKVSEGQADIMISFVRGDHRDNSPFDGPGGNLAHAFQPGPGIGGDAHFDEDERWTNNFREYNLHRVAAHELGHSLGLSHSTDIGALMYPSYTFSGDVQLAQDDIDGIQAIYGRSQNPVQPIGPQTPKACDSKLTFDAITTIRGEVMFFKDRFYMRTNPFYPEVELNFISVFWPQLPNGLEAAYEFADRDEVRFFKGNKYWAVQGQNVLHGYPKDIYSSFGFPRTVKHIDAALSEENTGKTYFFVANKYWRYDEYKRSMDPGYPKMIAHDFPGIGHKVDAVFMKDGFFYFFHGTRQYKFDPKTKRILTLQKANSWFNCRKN

T2: ADAMTS5 (human, UniProt Q9UNA0 262-622, limits assumed)
T2 sequence (looked up): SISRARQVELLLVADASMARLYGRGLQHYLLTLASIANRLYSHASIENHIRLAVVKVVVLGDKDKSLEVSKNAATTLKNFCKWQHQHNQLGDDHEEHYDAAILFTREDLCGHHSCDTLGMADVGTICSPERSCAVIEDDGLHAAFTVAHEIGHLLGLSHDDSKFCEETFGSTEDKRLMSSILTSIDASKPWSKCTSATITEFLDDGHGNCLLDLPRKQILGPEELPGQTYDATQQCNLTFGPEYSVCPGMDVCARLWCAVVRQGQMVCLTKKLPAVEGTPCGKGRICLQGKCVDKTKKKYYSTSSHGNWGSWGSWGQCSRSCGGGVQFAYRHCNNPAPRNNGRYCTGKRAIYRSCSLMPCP

T3: MMP2 (human, UniProt P08253 110-660, limits assumed)
T3 sequence (looked up): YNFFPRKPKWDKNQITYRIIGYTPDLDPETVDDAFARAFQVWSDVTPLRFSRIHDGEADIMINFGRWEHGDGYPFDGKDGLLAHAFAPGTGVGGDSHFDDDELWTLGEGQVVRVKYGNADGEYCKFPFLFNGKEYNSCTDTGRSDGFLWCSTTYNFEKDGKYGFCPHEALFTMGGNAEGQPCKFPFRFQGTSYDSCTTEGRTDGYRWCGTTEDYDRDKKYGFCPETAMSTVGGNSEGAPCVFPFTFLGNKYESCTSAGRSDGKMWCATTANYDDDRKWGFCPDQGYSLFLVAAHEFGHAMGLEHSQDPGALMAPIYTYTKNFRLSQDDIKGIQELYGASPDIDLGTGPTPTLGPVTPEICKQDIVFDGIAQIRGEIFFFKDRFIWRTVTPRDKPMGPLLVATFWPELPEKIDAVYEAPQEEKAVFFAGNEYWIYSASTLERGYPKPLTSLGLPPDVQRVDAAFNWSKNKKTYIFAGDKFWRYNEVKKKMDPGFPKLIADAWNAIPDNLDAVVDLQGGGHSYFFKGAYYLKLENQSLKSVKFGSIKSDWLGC

T4: ADAMTS4 (human, UniProt O75173 213-685, limits assumed)
T4 sequence (looked up): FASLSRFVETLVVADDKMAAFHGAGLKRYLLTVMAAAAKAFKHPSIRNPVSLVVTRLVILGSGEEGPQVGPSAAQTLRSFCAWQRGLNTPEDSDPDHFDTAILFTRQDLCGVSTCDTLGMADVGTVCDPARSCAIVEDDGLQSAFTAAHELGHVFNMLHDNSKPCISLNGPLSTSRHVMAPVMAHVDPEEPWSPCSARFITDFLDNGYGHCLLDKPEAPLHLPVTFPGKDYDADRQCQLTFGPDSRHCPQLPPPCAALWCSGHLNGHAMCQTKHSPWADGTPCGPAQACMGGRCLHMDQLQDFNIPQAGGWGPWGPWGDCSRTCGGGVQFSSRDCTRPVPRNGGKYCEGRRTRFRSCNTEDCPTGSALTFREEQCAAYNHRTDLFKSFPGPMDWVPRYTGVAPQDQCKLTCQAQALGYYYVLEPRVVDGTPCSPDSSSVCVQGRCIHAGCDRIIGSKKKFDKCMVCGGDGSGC

B1: Variant A2M, bait region SEQ ID NO 87 (other)
chain: SVSGKPQYMVLVPSLLHTETTEKGCVLLSYLNETVTVSASLESVRGNRSLFTDLEAENDVLHCVAFAVPKSSSNEEVMFLTVQVKGPTQEFKKRTTVMVKNEDSLVFVQTDKSIYKPGQTVKFRVVSMDENFHPLNELIPLVYIQDPKGNRIAQWQSFQLEGGLKQFSFPLSSEPFQGSYKVVVQKKSGGRTEHPFTVEEFVLPKFEVQVTVPKIITILEEEMNVSVCGLYTYGKPVPGHVTVSICRKYSDASDCHGEDSQAFCEKFSGQLNSHGCFYQQVKTKVFQLKRKEYEMKLHTEAQIQEEGTVVELTGRQSSEITRTITKLSFVKVDSHFRQGIPFFGQVRLVDGKGVPIPNKVIFIRGNEANYYSNATTDEHGLVQFSINTTNVMGTSLTVRVNYKDRSPCYGYQWVSEEHEEAHHTAYLVFSPSKSFVHLEPMSHELPCGHTQTVQAHYILNGGTLLGLKKLSFYYLIMAKGGIVRTGTHGLLVKQEDMKGHFSISIPVKSDIAPVARLLIYAVLPTGDVIGDSAKYDVENCLANKVDLSFSPSQSLPASHAHLRVTAAPQSVCALRAVDQSVLLMKPDAELSASSVYNLLPEKDLTGFPGPLNDQDDEDCINRHNVYINGITYTPVSSTNEKDMYSFLEDMGLKAFTNSKIRKPKMCPQLEQYEMHGPEGLRVGKEEEGLGSSELEGRGSTAQEAGEGKLRKYFPETWIWDLVVVNSAGVAEVGVTVPDTITEWKAGAFCLSEDAGLGISSTASLRAFQPFFVELTMPYSVIRGEAFTLKATVLNYLPKCIRVSVQLEASPAFLAVPVEKEQAPHCICANGRQTVSWAVTPKSLGNVNFTVSAEALESQELCGTEVPSVPEHGRKDTVIKPLLVEPEGLEKETTFNSLLCPSGGEVSEELSLKLPPNVVEESARASVSVLGDILGSAMQNTQNLLQMPYGCGEQNMVLFAPNIYVLDYLNETQQLTPEIKSKAIGYLNTGYQRQLNYKHYDGSYSTFGERYGRNQGNTWLTAFVLKTFAQARAYIFIDEAHITQALIWLSQRQKDNGCFRSSGSLLNNAIKGGVEDEVTLSAYITIALLEIPLTVTHPVVRNALFCLESAWKTAQEGDHGSHVYTKALLAYAFALAGNQDKRKEVLKSLNEEAVKKDNSVHWERPQKPKAPVGHFYEPQAPSAEVEMTSYVLLAYLTAQPAPTSEDLTSATNIVKWITKQQNAQGGFSSTQDTVVALHALSKYGAATFTRTGKAAQVTIQSSGTFSSKFQVDNNNRLLLQQVSLPELPGEYSMKVTGEGCVYLQTSLKYNILPEKEEFPFALGVQTLPQTCDEPKAHTSFQISLSVSYTGSRSASNMAIVDVKMVSGFIPLKPTVKMLERSNHVSRTEVSSNHVLIYLDKVSNQTLSLFFTVLQDVPVRDLKPAIVKVYDYYETDEFAIAEYNAPCSKDLGNADYKDDDDKGASHHHHHH
B2: Variant A2M, bait region SEQ ID NO 92 (other)
chain: SVSGKPQYMVLVPSLLHTETTEKGCVLLSYLNETVTVSASLESVRGNRSLFTDLEAENDVLHCVAFAVPKSSSNEEVMFLTVQVKGPTQEFKKRTTVMVKNEDSLVFVQTDKSIYKPGQTVKFRVVSMDENFHPLNELIPLVYIQDPKGNRIAQWQSFQLEGGLKQFSFPLSSEPFQGSYKVVVQKKSGGRTEHPFTVEEFVLPKFEVQVTVPKIITILEEEMNVSVCGLYTYGKPVPGHVTVSICRKYSDASDCHGEDSQAFCEKFSGQLNSHGCFYQQVKTKVFQLKRKEYEMKLHTEAQIQEEGTVVELTGRQSSEITRTITKLSFVKVDSHFRQGIPFFGQVRLVDGKGVPIPNKVIFIRGNEANYYSNATTDEHGLVQFSINTTNVMGTSLTVRVNYKDRSPCYGYQWVSEEHEEAHHTAYLVFSPSKSFVHLEPMSHELPCGHTQTVQAHYILNGGTLLGLKKLSFYYLIMAKGGIVRTGTHGLLVKQEDMKGHFSISIPVKSDIAPVARLLIYAVLPTGDVIGDSAKYDVENCLANKVDLSFSPSQSLPASHAHLRVTAAPQSVCALRAVDQSVLLMKPDAELSASSVYNLLPEKDLTGFPGPLNDQDDEDCINRHNVYINGITYTPVSSTNEKDMYSFLEDMGLKAFTNSKIRKPKMCPQLEQYEMHGPEGLRVGTAQEAGEGFYESDVMGRGHARLVHVEEPHTKLLRKYFPETWIWDLVVVNSAGVAEVGVTVPDTITEWKAGAFCLSEDAGLGISSTASLRAFQPFFVELTMPYSVIRGEAFTLKATVLNYLPKCIRVSVQLEASPAFLAVPVEKEQAPHCICANGRQTVSWAVTPKSLGNVNFTVSAEALESQELCGTEVPSVPEHGRKDTVIKPLLVEPEGLEKETTFNSLLCPSGGEVSEELSLKLPPNVVEESARASVSVLGDILGSAMQNTQNLLQMPYGCGEQNMVLFAPNIYVLDYLNETQQLTPEIKSKAIGYLNTGYQRQLNYKHYDGSYSTFGERYGRNQGNTWLTAFVLKTFAQARAYIFIDEAHITQALIWLSQRQKDNGCFRSSGSLLNNAIKGGVEDEVTLSAYITIALLEIPLTVTHPVVRNALFCLESAWKTAQEGDHGSHVYTKALLAYAFALAGNQDKRKEVLKSLNEEAVKKDNSVHWERPQKPKAPVGHFYEPQAPSAEVEMTSYVLLAYLTAQPAPTSEDLTSATNIVKWITKQQNAQGGFSSTQDTVVALHALSKYGAATFTRTGKAAQVTIQSSGTFSSKFQVDNNNRLLLQQVSLPELPGEYSMKVTGEGCVYLQTSLKYNILPEKEEFPFALGVQTLPQTCDEPKAHTSFQISLSVSYTGSRSASNMAIVDVKMVSGFIPLKPTVKMLERSNHVSRTEVSSNHVLIYLDKVSNQTLSLFFTVLQDVPVRDLKPAIVKVYDYYETDEFAIAEYNAPCSKDLGNADYKDDDDKGASHHHHHH
B3: Variant A2M, bait region SEQ ID NO 100 (other)
chain: B2 chain with T684G, A685E, Q686P, A688G, G689A, E690K

Biological target: MMP13 (human, UniProt P45452 104-471, limits assumed)
Test: cell-based or functional assay

Protease Inhibition (% of WT) | Binder
150 % of WT | B1
90 % of WT | B2
210 % of WT | B3

Biological target: MMP9 (human, UniProt P14780 107-707, limits assumed)
Test: cell-based or functional assay

MMP9, sequence (P14780 107-707 limits assumed): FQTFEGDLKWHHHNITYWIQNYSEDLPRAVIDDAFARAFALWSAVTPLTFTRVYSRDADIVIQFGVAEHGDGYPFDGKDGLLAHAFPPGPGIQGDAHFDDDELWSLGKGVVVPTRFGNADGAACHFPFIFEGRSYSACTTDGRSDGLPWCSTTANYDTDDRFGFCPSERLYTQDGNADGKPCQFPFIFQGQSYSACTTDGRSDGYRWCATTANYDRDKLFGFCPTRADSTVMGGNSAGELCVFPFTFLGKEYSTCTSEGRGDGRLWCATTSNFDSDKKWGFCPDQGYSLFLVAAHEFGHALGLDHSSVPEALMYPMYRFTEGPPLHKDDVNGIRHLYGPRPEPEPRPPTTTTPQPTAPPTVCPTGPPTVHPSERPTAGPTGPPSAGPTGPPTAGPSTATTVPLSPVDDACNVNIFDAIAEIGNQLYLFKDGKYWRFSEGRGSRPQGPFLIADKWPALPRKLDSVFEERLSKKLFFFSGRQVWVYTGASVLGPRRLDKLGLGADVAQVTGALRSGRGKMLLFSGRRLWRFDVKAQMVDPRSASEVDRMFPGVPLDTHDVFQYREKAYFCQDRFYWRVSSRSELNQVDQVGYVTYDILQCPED

Protease Inhibition (% of WT) | Binder
70 % of WT | B1
50 % of WT | B2
50 % of WT | B3

Biological target: MMP8 (human, UniProt P22894 101-467, limits assumed)
Test: cell-based or functional assay

MMP8, sequence (P22894 101-467 limits assumed): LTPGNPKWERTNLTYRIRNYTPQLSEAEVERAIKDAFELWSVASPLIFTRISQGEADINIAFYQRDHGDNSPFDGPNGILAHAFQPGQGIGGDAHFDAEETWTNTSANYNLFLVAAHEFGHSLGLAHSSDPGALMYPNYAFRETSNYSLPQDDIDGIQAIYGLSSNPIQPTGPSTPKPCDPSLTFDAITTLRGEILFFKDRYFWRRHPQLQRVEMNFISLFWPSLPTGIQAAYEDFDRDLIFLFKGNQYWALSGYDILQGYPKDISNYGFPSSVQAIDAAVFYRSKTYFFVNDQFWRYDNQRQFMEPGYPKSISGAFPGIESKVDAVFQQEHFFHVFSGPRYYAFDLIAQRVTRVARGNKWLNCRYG

Protease Inhibition (% of WT) | Binder
40 % of WT | B1
160 % of WT | B2
20 % of WT | B3

Biological target: T1, MMP1
Test: cell-based or functional assay

Protease Inhibition (% of WT) | Binder
150 % of WT | B1
170 % of WT | B2
40 % of WT | B3

Biological target: MMP3 (human, UniProt P08254 100-477, limits assumed)
Test: cell-based or functional assay

MMP3, sequence (P08254 100-477 limits assumed): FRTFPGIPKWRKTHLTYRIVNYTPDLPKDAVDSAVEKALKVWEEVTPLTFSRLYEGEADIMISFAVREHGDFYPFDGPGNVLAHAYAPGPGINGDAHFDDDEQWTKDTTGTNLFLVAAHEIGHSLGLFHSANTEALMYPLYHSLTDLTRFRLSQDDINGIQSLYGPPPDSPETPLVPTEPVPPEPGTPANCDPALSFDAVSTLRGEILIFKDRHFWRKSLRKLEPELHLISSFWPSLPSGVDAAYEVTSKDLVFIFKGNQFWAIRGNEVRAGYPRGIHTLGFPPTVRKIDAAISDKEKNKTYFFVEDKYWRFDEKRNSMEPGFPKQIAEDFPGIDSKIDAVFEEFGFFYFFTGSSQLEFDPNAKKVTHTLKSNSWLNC

Protease Inhibition (% of WT) | Binder
40 % of WT | B1
80 % of WT | B2
50 % of WT | B3

Biological target: T2, ADAMTS5
Test: cell-based or functional assay

Protease Inhibition (% of WT) | Binder
170 % of WT | B1
250 % of WT | B2
400 % of WT | B3

Biological target: T3, MMP2
Test: cell-based or functional assay

Protease Inhibition (% of WT) | Binder
100 % of WT | B1
110 % of WT | B2
110 % of WT | B3

Biological target: T4, ADAMTS4
Test: cell-based or functional assay

Protease Inhibition (% of WT) | Binder
160 % of WT | B1
210 % of WT | B2
50 % of WT | B3
